Kd data for one molecule are collected here from article PMC11696079.

By Kd is commonly meant the equilibrium constant for the complex coming apart.

Assay [1] concerns the target circPETH-147aa MEG/3 A, recombinant (human). As to the kind of experiment: SPR.
Assay [2] deals with circPETH-147aa, recombinant wild type (human). As to the kind of experiment: SPR. A general note: Surface plasmon resonance follows binding to a sensor surface in real time, without labels.

B1: recombinant wild-type ALDOA (WT) (enzyme)
chain: PYQYPALTPEQKKELSDIAHRIVAPGKGILAADESTGSIAKRLQSIGTENTEENRRFYRQLLLTADDRVNPCIGGVILFHETLYQKADDGRPFPQVIKSKGGVVGIKVDKGVVPLAGTNGETTTQGLDGLSERCAQYKKDGADFAKWRCVLKIGEHTPSALAIMENANVLARYASICQQNGIVPIVEPEILPDGDHDLKRCQYVTEKVLAAVYKALSDHHIYLEGTLLKPNMVTPGHACTQKFSHEEIAMATVTALRRTVPPAVTGITFLSGGQSEEEASINLNAINKCPLLKPWALTFSYGRALQASALKAWGGKKENLKAAQEEYVKRALANSLACQGKYTPSGQAGAAASESLFVSNHAY
For B1, the Kd in assay [1] turned out to be 1410 nM; in assay [2], 42.4 nM.
